Measured values published in patent publication US20220267412A1.

Target: porcine pancreatic elastase (porcine) (UniProt P00772)
Test: cell-based or functional assay

porcine pancreatic elastase (porcine), sequence (P00772 27-266): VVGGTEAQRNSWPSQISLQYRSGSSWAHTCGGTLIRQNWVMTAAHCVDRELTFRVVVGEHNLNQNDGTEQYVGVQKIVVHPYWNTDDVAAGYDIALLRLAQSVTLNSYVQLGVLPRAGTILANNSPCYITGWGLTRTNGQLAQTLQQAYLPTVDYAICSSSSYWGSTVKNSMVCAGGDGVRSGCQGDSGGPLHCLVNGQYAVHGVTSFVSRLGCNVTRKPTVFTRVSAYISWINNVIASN

human serpin B1 C344S variant (from UniProt P30740 1-379)
amount of purified protein to fully inhibit PPE (typically 160 nM, 200 uL, +40 mM 2-ME): 13 µg
